This is an account of results in patent US8431396B2, “Anti-angiogenic peptides” (The Cleveland Clinic Foundation, priority 2003, dated 2013).

Series [1] relates to PAE-KDR cells. The experiment in a line: Endothelial cell migration toward VEGF (modified Boyden chamber). It counts as cell-based, porcine. As for the experimental part: (B) Comparison of the effects of rTIMP3, rTIMP1 and BB3103 on VEGF165-induced migration of PAE-KDR cells. […] In all migration experiments, migrating cell number is expressed as mean±s.e.m. of quadruplicate samples. All experiments were done in triplicate. Open symbols, KDR-vector; closed symbols, KDR-TIMP3.*, P<0.01; **, P<0.05.
(§1) A modified Boyden chamber assay for migration and proliferation assays were carried out as described.

In series [2] the test system is PAE-KDR cells. The experiment in a line: Endothelial cell proliferation in response to VEGF165 and VEGF121. The class given is cell-based, porcine. The protocol:
(A) Proliferative response of PAE-KDR cells to VEGF165 (5 ng/ml; left) and VEGF121 (30 ng/ml; right). […] (C) DNA synthesis of endothelial cells in response to VEGF165. […] [3H]thymidine incorporation was measured during the last 5 h of incubation. (D) Analysis of endothelial cell expressing TIMP3. […] Expression of TIMP3 protein was determined by immunoblotting with antibody against TIMP3 (top left). MMP-inhibitory activity was determined by reverse zymography (top right). Corresponding densito-metric quantitation is expressed as arbitrary optical density (OD) units±s.d. (C) DNA synthesis in adenovirus-infected cells in response to VEGF. […] In all proliferation experiments, total number of cells was counted at 48 h. Proliferating cell number is expressed as means±s.e.m. of quadruplicate samples. DNA synthesis data represent the means±s.e.m. of triplicate samples; similar results were obtained in at least 2 different experiments. *, P<0.01.
as §1

Series [3] concerns MS1 mouse endothelial cells. The experiment in a line: MS1 endothelial cells infected with adenovirus expressing WT-TIMP3 or TIMP3Cys1-Ser: apoptosis and [3H]thymidine incorporation. It counts as cell-based. The conditions noted are these: MS1 cells infected with wild-type or mutant virus. The protocol:
MS1 mouse endothelial cells\(American Type Culture Collection, Manassas, Va.) were cultured until 80% confluent and infected with adenovirus as described. Cells were infected at 50 or 200 plaque-forming units per cell for 18 h. Medium was then replaced with fresh complete medium and left for 48 h until analysis.
as §1

For another series, the target named is T1, KDR (Homo sapiens, UniProt P35968).
T1 construct: To determine whether these receptor isoforms represent full-length VEGFR-2; expressed in transfected cells; host or cells: porcine aortic endothelial (PAE) cells
The experiment in a line: VEGF165-induced KDR phosphorylation (immunoprecipitation/immunoblot). The class given is cell-based. The conditions noted are these: 1 μg/ml; PAE-KDR cells. As for the experimental part: (§2) PDGF-BB-mediated phosphorylation was examined similarly in PAESPDGFR-β cells (anti-PDGFR-β; top right panel). […] PDGF-BB-mediated phosphorylation of PDGFR-β in PAE-PDGFR-β cells overexpressing TIMP3 (top right). KDR protein or PDGFR-β protein was analyzed by both immunoprecipitation and immunoblotting with antibodies specific for KDR (left) or for PDGFR-β (right; A and B, second panels from top). […] Total protein levels of ERK were determined by immunoblotting with antibodies specific for ERK1/2 (anti-ERK1/2; A and B, bottom).
(§3) Cell fractions, prepared as described earlier, or immunoprecipitates of the lysates with the indicated antibodies, were subjected to SDS-PAGE. Proteins were detected with horseradish peroxidase-conjugated antibodies specific for either rabbit or mouse IgG (Amersham Pharmacia, Piscataway, N.J.) followed by enhanced chemiluminescence.
For orientation: A western blot detects proteins with antibodies after separation by electrophoresis.

A further series deals with T2, PDGFR-β (Homo sapiens, UniProt P09619).
T2 construct: expressed in transfected cells; host or cells: porcine aortic endothelial (PAE) cells
The experiment in a line: PDGF-BB-induced PDGFR-β phosphorylation (immunoprecipitation/immunoblot). It counts as cell-based. Particulars: 1 μg/ml; PAE-PDGFR-β cells. As for the experimental part: as §2, §3

The next series deals with endothelial cells. The experiment in a line: Competitive displacement of [125I]TIMP3 from the surface of endothelial cells. The class given is binding. Particulars: unlabeled VEGF 2 μg/ml, TIMP3 10 μg/ml. The protocol: Immunoprecipitation of cell lysates with antibodies specific for TIMP3 was followed by immunoblotting with antibodies specific for KDR (top). As a control for KDR receptor, cell lysates were immunoprecipitated with anti-bodies specific for KDR and probed with antibodies specific for KDR Immunoprecipitation with antibodies specific for KDR and immunoblotting with antibodies specific for TIMP3 (bottom) were carried out on PAE-KDR cells exposed to recombinant TIMP3 or PAE-KDR-vector and PAE-KDR cells overexpressing TIMP3, to confirm the interaction. […] Competition with unlabeled TIMP3 was carried out to ensure specificity. […] (E) In vivo interaction of KDR and TIMP3 in human placenta. Immunoprecipitation using antibodies specific TIMP3 (top) and KDR (bottom) was followed by immunoblotting with antibodies specific for KDR (top) and TIMP3 (bottom).
In general terms: Displacement assays read how much labelled ligand stays bound in the presence of the test substance.

Another series addresses T3, VEGFR-2 (KDR) (Homo sapiens, UniProt P35968).
T3 construct: To determine whether these receptor isoforms represent full-length VEGFR-2; expressed in transfected cells; host or cells: porcine aortic endothelial (PAE) cells
The experiment in a line: [125I]VEGF binding in transfected PAEKDR cell lines. Particulars: PAEKDR cells expressing WT-TIMP3. The protocol:
PAEKDR cells were transfected with TIMP3 cDNA or empty vector using Lipofectamine reagent (Gibco-BRL Rockville, Md.). Stable clones were isolated using Hygromycin selection.
After washing, the cell monolayers were solubilized with lysis buffer (20 mM Tris HCl pH 7.5, 1% triton X 100 and 10% glycerol), and the radioactivity measured in a gamma counter.

Another series has as its system MMPs. The experiment in a line: Reverse zymography of ECM and CM of transfected PAEKDR cells. The class given is biochemical. The conditions noted are these: PAEKDR cells expressing WT or mutant TIMP3. As for the experimental part:
Conditioned medium, cell lysates and ECM fractions from transfected cells were prepared as described previously (Qi et al., 2002). Equal amounts of protein were loaded onto a 12% gel with 1 mg/ml gelatin plus RPE cell-conditioned media, as a source of MMPs, for reverse zymography and processed as described previously (Pavloff et al., 1992).

The test system of series [4] is PAEKDR cells. The experiment in a line: VEGF-stimulated migration (modified Boyden chamber) of transfected PAEKDR cells. It counts as cell-based, porcine. The conditions noted are these: VEGF 50 ng/ml. As for the experimental part:
A modified Boyden chamber assay was carried out as described previously 34. Briefly, 8.0 μm pore PVPF polycarbonate membranes were pre-coated with 100 μg/ml collagen type I in 0.2 N acetic acid (Cohesion technologies, INC. Pala Alto, Calif.). […] Chamber was then incubated for 4 hrs at 37° C. in a 5% CO2 humidified incubator. Cells remaining on the top of the filter were removed. Cells on the bottom surface of the filter were fixed, stained and mounted. The number of migrating cells per well was counted microscopically.

Series [5] deals with PAEKDR cells. The experiment in a line: Tube formation assay in type 1 collagen gels. The class given is cell-based, porcine. Particulars: 50 ng/ml VEGF; three-dimensional collagen gels. The protocol: Type 1 collagen was mixed with 10×DMEM and 0.1 M NaOH (8:1:1), adjusted to a solution containing 10 μg/ml growth factor reduced matrigel matrix (BD, Biosciences), and then distributed in 48-well dishes. […] After 4 h of incubation at 37° C., a second layer of collagen was added, and cultures were kept under the same conditions as above described. Tube formation was examined using a phase-contrast microscopy at the indicated time points.

T2 sequence (P09619 33-1106, species assumed): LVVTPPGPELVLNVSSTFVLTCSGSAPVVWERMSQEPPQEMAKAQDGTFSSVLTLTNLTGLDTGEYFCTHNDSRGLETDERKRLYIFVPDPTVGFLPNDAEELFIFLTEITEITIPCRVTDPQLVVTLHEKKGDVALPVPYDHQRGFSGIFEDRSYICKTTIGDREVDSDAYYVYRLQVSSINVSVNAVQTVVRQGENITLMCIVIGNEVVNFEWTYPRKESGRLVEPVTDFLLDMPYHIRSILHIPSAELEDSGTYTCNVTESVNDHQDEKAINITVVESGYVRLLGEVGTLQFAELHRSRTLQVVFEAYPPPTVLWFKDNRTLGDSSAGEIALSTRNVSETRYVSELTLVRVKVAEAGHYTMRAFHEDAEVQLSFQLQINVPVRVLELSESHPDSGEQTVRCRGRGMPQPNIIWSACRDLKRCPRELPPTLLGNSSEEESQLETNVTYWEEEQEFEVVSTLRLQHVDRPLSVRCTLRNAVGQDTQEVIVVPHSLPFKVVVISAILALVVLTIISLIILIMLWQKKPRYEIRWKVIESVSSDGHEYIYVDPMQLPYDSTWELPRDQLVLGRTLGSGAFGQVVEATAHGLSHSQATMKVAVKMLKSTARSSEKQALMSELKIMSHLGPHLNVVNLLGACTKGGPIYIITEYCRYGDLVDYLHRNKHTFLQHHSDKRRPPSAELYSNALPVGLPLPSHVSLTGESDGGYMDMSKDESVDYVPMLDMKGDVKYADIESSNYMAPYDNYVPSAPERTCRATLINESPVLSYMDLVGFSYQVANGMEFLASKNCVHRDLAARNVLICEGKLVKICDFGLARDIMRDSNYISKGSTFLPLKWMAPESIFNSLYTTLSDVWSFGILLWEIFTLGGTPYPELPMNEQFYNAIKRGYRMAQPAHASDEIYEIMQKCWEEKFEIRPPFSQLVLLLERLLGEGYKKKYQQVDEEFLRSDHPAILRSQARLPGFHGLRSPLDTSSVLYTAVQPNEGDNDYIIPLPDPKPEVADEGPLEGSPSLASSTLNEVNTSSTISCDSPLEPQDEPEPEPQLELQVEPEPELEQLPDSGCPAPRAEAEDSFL
T3 sequence (P35968 20-1356): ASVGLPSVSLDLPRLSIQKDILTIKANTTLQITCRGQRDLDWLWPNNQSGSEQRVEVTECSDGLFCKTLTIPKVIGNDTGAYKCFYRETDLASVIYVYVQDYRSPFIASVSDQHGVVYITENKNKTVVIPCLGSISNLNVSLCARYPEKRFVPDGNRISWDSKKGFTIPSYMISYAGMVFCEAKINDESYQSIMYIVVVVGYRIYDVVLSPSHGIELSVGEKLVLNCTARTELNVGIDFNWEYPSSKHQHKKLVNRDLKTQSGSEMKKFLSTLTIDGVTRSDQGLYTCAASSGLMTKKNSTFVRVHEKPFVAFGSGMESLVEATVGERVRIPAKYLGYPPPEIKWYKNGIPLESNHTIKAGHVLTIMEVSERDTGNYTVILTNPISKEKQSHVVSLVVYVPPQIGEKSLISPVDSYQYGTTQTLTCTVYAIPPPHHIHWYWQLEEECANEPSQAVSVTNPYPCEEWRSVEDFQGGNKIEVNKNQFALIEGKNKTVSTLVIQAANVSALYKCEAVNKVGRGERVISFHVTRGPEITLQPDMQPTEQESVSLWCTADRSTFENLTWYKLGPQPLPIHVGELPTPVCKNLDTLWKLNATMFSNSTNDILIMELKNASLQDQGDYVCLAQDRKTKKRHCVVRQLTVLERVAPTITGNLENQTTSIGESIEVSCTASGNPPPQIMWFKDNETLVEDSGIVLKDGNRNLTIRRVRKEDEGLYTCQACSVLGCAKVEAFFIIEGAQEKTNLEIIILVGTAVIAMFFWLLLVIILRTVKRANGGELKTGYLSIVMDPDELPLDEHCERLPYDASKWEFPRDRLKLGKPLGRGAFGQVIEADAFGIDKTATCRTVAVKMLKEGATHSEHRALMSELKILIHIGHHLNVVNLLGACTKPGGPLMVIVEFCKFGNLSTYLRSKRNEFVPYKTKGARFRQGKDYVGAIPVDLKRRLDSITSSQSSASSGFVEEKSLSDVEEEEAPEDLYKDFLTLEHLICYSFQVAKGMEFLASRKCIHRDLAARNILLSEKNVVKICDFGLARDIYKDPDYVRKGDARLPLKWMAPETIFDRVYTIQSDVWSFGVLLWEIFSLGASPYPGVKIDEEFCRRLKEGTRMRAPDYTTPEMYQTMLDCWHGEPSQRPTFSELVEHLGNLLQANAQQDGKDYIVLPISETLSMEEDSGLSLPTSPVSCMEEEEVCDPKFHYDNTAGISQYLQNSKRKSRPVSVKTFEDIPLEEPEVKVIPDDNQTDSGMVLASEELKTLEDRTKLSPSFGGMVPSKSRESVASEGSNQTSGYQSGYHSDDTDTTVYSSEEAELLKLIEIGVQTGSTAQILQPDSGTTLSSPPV
T1 sequence (P35968 20-1356): as above

B1: TIMP3: tissue inhibitor of metalloproteinases-3; recombinant human form expressed in NSO myeloma cells, or wild-type expressed in transfected cells (protein, listed as Homo sapiens)
chain: MTPWLGLIVLLGSWSLGDWGAEACTCSPSHPQDAFCNSDIVIRAKVVGKKLVKEGPFGTLVYTIKQMKMYRGFTKMPHVQYIHTEASESLCGLKLEVNKYQYLLTGRVYDGKMYTGLCNFVERWDQLTLSQRKGLNYRYHLGCNCKIKSCYYLPCFVTSKNECLWTDMLSNFGYPGYQSKHYACIRQKGGYCSWYRGWAPPDKSIINATDP
Take B1: in the series with PAE-KDR cells [1] (added exogenously, VEGF165 10 ng/ml), the “inhibition of endothelial cell migration toward VEGF” value is on record as “inhibited their migration toward VEGF in a dose-dependent manner”. For the same molecule, the “dose giving complete inhibition of migration toward VEGF” value in the series with PAE-KDR cells [1] (recombinant protein added exogenously) worked out at 3 µg/mL. For the same molecule, in the series with PAE-KDR cells [1] (stable expression of TIMP3 in the endothelial cells), the “chemotactic response to VEGF121 and VEGF165” value is listed as “attenuation of the chemotactic response”. Further, the “inhibition of proliferative response to VEGF165 and VEGF121” value in the series with PAE-KDR cells [2] (added exogenously at 0.3-1 μg/ml) was “inhibited the proliferative response”. For the same molecule, the “proliferative response to VEGF165 and VEGF121” value in the series with PAE-KDR cells [2] (over-expression of TIMP3 in endothelial cells) is on record as “attenuation of the proliferative response”. For the same molecule, the “dose required to block the biological responses of in vivo angiogenesis, endothelial cell proliferation and migration” value in the series with PAE-KDR cells [2] (summary over CAM, proliferation and migration assays) is 0.3-3 μg/ml. Further, the “apoptosis after adenovirus infection” value in series [3] is “No apoptosis was observed”. Besides, the “inhibition of VEGF165-induced phosphorylation of KDR” value with KDR was “strongly inhibited”. Besides, the “effect on phosphorylation of PDGFR-β stimulated with PDGF-BB” value in the series with PDGFR-β is given as “did not affect”. Also, the “inhibition of binding of labeled TIMP3 to the surface of endothelial cells” value in the series on endothelial cells is “could inhibit the binding of labeled TIMP3”. The “effect on binding of [125I] VEGF to KDR” value with VEGFR-2 (KDR) is “dramatically inhibited the binding”. Further, the “MMP inhibitory activity in ECM and CM (reverse zymography)” value in the series on MMPs is “marked MMP inhibitory species”. For the same molecule, the “VEGF-stimulated migration of cells expressing TIMP3 variant” value in the series with PAEKDR cells [4] was “dramatically reduced basal and VEGF-stimulated migration”. For the same molecule, the VEGF-stimulated tube formation entry in the series on PAEKDR cells [5] was “severely compromised”.
